Assay results taken from patent US8906858B2, “Method for the prophylactic or therapeutic treatment of glucocorticoid-induced osteoporosis” (Fritz-Lipmann-Institut E. V. Leibniz-Institut Fuer …, priority 2010, dated 2014).

Test system: primary wild type osteoblasts
Experiment: Soluble factors added to osteoblasts during osteogenic induction in presence or absence of Dex
Format: cell-based, mouse
Method: FIG. 7. Differential gene regulation in GR^dim osteoblasts and bone organs by GCs and involvement of AP-1 in suppression of IL-11 in osteoblast differentiation. (A-E) Primary osteoblasts were grown until confluence and treated as described in FIG. 4A. qRT-PCR-determined mRNA expression levels of GILZ, Per-1, KLF15, Lif (LIF) and II11 (IL-11) after six hours. (F-H) qRT-PCR-determined mRNA expression level of IL-11 in organ cultures of GR mutant fetal hind legs (F), in dN^Runx2Cre osteoblasts (G) and c-jun^null MEFs (H) after six hours treatment. (I) Chromatin immunoprecipitation of MEFs after six hours. […] IgG precipitation served as negative control and amplification of the input as positive control. […] At day 10, ALP activity was determined and at day 20, Alizarin Red staining was performed. (K) Quantification of ALP-positive cells treated as in (J) after 10 days. (L) qRT-PCR-determined Runx2 mRNA expression level in cells treated as in (J) after 10 days.
FIG. 13. Effects of GR regulated soluble factors on osteoblast cell numbers. […] At day 10 cell counts were determined by automatic microscopy. Data are represented as mean+/−SEM. *<0.05.
FIG. 14. Effects of GR regulated soluble factors on osteoblast cell differentiation. Primary wild type osteoblasts were differentiated with or without Dex. At day 10 the specific ALP activity was determined and is depicted as ALP positive cells in percent in the absence or presence of NGF (A), IL-6 (B), EGF (C) and LIF (D). Data are represented as mean+/−SEM. * p<0.05; ** p<0.01.
Primary osteoblasts were isolated from either embryonic (E18.5) or neonatal calvaria by sequential digestions and cultivated as previously described (David et al., 2005). c-Jun-deficient cells were obtained from previously described mice (Schreiber et al., 1999). […] Differentiation of osteoblasts was determined by staining for ALP activity (ALP kit, Sigma or ELF® Phosphatase Detection Kit, ATCC) or by Alizarin Red staining (Sigma) at indicated time points. Apoptosis was detected by In situ Cell Death Detection Kit (Roche), and proliferation with fluorescent immunohistochemistry using mouse anti-Ki-67 (BD Pharmingen™) and Alexa Fluor® 594-labeled donkey anti-mouse IgG (Molecular Probes™). Quantification of the stainings and cell numbers according to DAPI labeling was performed by automated microscopy using Cellomics ArrayScan and software HCS Scan® (Thermo-Fischer). The factors EGF (Calbiochem), NGF2 (Sigma), IL-6 (ImmunoTools), IL-11 (Antigenix America, Inc.) and LIF (Chemicon) were added to the culture after differentiation at concentrations of 0.8, 4 and 20 ng/ml. qRT-PCR was performed as previously described (Tuckermann et al., 2007). Primer information can be provided upon request.

Molecule | rescue of Dex-impaired osteoblast differentiation (ALP positive cells) (day 10, with Dex) | rescue of Dex-reduced osteoblast cell numbers (day 10, with Dex) | Dex suppression of ALP activity, of Runx2 expression and calcification (in the presence of IL-11) | effect on osteoblast differentiation
IL-11: recombinant Interleukin-11 (protein, UniProt P20809 22-199, looked up) Interleukin-11: PGPPPGPPRVSPDPRAELDSTVLLTRSLLADTRQLAAQLRDKFPADGDHNLDSLPTLAMSAGALGALQLPGVLTRLRADLLSYLRHVQWLRRAGGSSLKTLEPELGTLQARLDRLLRRLQLLMSRLALPQPPPDPPAPPLAPPSSAWGGIRAAHAILGGLHLTLDWAVRGLLLLKTRL | potently antagonized | not rescuing | fully restored | –
HB-EGF: heparin binding-epidermal growth factor (protein, UniProt Q99075 63-148, looked up) Heparin-binding EGF-like …: DLQEADLDLLRVTLSSKPQALATPNKEEHGKRKKKGKGLGKKRDPCLRKYKDFCIHGECKYVKELRAPSCICHPGYHGERCHGLSL | – | – | – | inhibitory effect
